The values below come from paper PMC3324619.

In assay [1] the target is CytERM-EGFP (not stated | Aequorea victoria) (UniProt P00180).
In a further assay the target is CytERM-TagRFP (UniProt P00180).

Sequence of CytERM-TagRFP (P00180 whole entry): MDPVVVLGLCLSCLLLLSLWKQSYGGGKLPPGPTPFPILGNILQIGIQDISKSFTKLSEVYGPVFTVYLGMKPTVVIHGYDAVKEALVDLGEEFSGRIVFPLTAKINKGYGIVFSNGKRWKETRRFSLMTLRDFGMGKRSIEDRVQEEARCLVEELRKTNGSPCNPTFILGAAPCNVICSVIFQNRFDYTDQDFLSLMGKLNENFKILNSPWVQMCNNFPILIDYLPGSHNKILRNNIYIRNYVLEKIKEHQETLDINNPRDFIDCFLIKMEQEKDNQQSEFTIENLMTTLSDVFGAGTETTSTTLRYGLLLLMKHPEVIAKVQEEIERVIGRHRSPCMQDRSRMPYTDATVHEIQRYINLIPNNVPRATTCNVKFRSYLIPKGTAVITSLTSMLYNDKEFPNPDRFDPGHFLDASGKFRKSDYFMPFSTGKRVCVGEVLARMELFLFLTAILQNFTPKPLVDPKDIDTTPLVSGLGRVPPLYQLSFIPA

CytERM-EGFP (from UniProt P00180 1-29) registered an OSER assay: average structure area, U2OS cells in assay [1] of 8.7 μm^2. Turning to “CytERM-TagRFP (from UniProt P00180 1-29)”, in the assay with CytERM-TagRFP, the OSER assay: ratio of structure MFI to nuclear envelope MFI, U2OS cells stood at 3.9.
